Data as given in patent US20170204445A1, “IN VIVO SITE-SPECIFIC PROTEIN TAGGING USING ENGINEERED SORTASE VARIANTS” (priority 2016, published 2017).

Target: Biotin-Lysozyme (hen) (UniProt P00698)
Assay: flow
Details: scFv

Biotin-Lysozyme (hen), sequence (P00698 19-147): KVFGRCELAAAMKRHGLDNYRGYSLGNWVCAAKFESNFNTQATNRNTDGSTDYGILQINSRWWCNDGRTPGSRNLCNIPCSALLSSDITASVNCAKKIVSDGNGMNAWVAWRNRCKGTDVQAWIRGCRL

| Substance | Kd |
| --- | --- |
| scFv D1.3 (from UniProt P32781 19-87) | 500 pM |
| scFv D1.3 (from UniProt P42212 1-238; P32781 19-87) | 500 pM |
